Test results published in US6365154 (GlaxoSmithKline, dated 2002).

What was measured:
[1] = biological target: T1, recombinant Tie2 extracellular domain-Fc fusion (UniProt Q02763 23-748); test: BIAcore SPR; mAb captured on rabbit anti-mouse IgG Fc, Tie2-Fc injected
T1 construct: extracellular domain; also called Tie2-Fc; Tie2 receptor-Fc fusion; not shown: It is probably human IgG Fc: human IgG1 was added to remove anti-Fc mAbs, and the fusion was ca
Description: The affinity of the purified mAbs was measured in the BIAcore. Using a flow rate of 10 ul/min, the mAb (diluted in HBS buffer) was injected over a rabbit anti-mouse IgG Fc surface, followed by buffer flow and the RU recorded. Tie2-Fc diluted in HBS buffer was then injected for 120s followed by buffer flow for 240s and regeneration of the sensor chip surface with an injection of 15 ul 0.1 M phosphoric acid. BIAcore software was used for association and dissociation-phase analysis. The murine monoclonal antibodies bound to soluble monomeric Tie2 receptor. The on-rates ($kass$) and off-rates ($kdiss$) were calculated.

[2] = biological target: Tie2 receptor on HEL cells or HUVECs (human, UniProt Q02763 23-1124); test: cell-based or functional assay
Tie2 receptor on HEL cells or HUVECs, sequence (Q02763 23-1124): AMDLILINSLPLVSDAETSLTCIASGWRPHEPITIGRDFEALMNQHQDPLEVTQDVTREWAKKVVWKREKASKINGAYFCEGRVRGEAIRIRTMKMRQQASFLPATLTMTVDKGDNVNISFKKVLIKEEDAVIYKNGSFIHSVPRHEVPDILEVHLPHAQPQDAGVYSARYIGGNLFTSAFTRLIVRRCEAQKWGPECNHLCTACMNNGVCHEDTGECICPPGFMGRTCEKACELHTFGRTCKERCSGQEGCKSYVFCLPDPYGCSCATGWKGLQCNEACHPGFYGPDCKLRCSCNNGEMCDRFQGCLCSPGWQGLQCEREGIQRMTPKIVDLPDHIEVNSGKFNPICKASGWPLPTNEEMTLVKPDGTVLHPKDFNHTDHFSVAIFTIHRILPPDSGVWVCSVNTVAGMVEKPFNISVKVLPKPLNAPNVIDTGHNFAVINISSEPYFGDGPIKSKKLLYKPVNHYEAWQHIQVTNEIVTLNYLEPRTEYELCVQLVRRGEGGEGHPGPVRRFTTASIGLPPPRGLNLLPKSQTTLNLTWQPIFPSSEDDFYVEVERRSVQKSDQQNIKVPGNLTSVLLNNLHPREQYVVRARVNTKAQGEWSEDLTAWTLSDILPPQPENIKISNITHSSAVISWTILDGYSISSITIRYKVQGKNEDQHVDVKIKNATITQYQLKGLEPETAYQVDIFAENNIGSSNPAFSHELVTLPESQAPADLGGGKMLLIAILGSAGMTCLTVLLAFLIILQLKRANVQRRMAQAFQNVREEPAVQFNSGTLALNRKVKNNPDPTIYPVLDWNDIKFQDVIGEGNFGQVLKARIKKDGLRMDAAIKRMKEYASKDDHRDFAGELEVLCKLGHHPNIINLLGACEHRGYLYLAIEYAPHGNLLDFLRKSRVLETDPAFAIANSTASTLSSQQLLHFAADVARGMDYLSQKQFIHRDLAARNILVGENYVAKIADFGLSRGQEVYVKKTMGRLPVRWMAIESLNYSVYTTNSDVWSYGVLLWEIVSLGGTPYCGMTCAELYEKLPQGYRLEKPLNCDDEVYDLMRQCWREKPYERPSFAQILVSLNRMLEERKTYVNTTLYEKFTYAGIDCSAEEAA

T1 sequence (Q02763 23-748): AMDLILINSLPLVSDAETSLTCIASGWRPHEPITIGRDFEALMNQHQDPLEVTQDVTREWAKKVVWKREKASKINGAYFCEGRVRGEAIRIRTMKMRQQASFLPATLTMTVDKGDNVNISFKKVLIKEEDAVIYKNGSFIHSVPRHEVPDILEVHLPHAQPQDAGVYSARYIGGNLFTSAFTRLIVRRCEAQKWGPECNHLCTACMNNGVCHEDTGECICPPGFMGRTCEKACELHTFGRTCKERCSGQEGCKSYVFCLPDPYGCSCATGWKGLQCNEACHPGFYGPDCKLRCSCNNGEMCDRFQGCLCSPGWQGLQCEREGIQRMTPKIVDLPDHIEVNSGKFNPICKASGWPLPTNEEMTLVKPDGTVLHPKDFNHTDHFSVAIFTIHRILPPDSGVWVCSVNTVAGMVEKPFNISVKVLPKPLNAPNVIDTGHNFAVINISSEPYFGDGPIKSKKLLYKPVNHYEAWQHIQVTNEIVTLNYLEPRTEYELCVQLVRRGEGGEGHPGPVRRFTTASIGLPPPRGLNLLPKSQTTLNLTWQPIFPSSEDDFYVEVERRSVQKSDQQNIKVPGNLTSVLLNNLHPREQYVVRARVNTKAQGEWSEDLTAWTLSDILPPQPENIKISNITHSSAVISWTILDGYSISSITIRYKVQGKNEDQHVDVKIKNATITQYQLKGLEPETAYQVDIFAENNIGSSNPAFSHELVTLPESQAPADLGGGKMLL

Binder	Kd [1] [nM]	Tie2 receptor tyrosine phosphorylation (immunoprecipitation and anti-phosphotyrosine Western blot, ratio to Tie-2 staining) [2] [fold over basal]
murine monoclonal antibody 13H10 (antibody, V domains shown, Constant regions are mouse IgG heavy and kappa light, going by the PCR primers; also called mAb 13H10; mAb 13H 10) VH: QIQLVQSGPELKKPGETVKISCKASGYTFTDFSIHWVKQAPGKGLKWMGWINTETGETTYAEDFKGRFAFSLETSASTAYLQINNLKNEDTATYFCSRRYDYDTWFAYWGQGTLVTVS VL: DIVMTQAALSVPVTPGESVSISCRSSSSLLHRNGNTYLYWFLQRPGQSPQLLIYRMSNLASGVPDRFSGSGSGTAFTLRISRVEAEDVGVYYCMQRLEYPFTFGGGTKLEIKR	3.1	–
murine monoclonal antibody 15B8 (antibody, V domains shown, Constant regions are mouse IgG heavy and kappa light, going by the PCR primers; also called mAb 15B8; mAb 1 B 8) VH: QVQLQQPGVVLVMPGASVKLSCKASGYTFASYWMHWVKQRPGQGLEWIGEIDPSDSYRNYNQKFKGKATLTVDKSSSTVNMQLSSLTSEDSAVYYCAKTSGIGRAMDYWGQGTSVTVSS VL: DIQMIQSPASLSASVGETVTITCRASENIYSFVTWYQQKQGKSPQLLVFNAKNLVEGVPSSFSGSGSGTQFSLKIDSLQPEDFGTYYCQHHYSIPYTFGGGTKLEMR	0.24	> 2
